Experimental data from the Human Domainome abundance scans (Beltran et al. 2025).

B1: Tudor domain-containing protein 3, residues 554 to 611; numbered along this chain, Q9H7E2 (parent)
chain: KMWKPGDECFALYWEDNKFYRAEVEALHSSGMTAVVKFIDYGNYEEVLLSNIKPIQTE

Variants of: B1
Assay: abundance fitness (aPCA) (normalised: wild type 0, dead -1); higher = more abundant; growth selection in yeast, the domain comes from the species named
Settings: Homo sapiens

Abundance fitness: each site, then its substitutions
V47: G -0.873 | E -0.925 | D -0.729 | C -0.296 | F -0.636 | A -0.815
Y41: N 0.035 | W -0.029 | M -0.086 | E 0.042 | A 0.134 | V -0.025 | R 0.108 | Q 0.105 | I 0.076 | P -0.446 | G 0.07 | C -0.019 | H 0.028 | D 0.055 | K 0.103 | F 0.162 | T 0.132 | S 0.118 | L -0.045
V36: T -0.777 | S -0.913 | K -0.843 | L -0.571 | I -0.295 | N -1.11 | R -0.88 | Q -0.73 | W -0.833
I39: R -0.097 | S -0.111 | G -0.361 | Q -0.082 | Y -0.006 | C -0.081 | K 0.044 | A -0.036 | P -0.278 | F -0.083 | D -0.469 | L -0.05 | N -0.255 | M -0.093 | T -0.034 | W -0.361
E46: Y -0.324 | H -0.308 | S -0.029 | L -0.327 | M -0.342 | Q -0.055 | C -0.279 | I -0.488 | G -0.88 | K -0.205 | R -0.138 | W -0.259 | D -0.149 | F -0.697 | P -0.465
G42: S -0.378 | C -0.315 | R -0.607 | D 0.059 | H -0.395 | V -0.926 | P -0.11 | K -0.407 | M -0.319 | Q -0.345 | A -0.305 | W -0.695 | E 0.005 | L -0.492 | T -0.736
F38: I -0.852 | C -0.935 | N -0.802 | T -0.987 | H -0.94 | K -1.13 | R -0.894 | E -0.997 | A -0.878 | W -0.416 | V -0.787 | Q -0.946 | G -0.845 | Y -0.479 | P -0.941 | M -0.722 | D -0.764
K37: A -0.996 | S -0.616 | M -0.741 | R -0.064 | D -0.74 | W -0.635 | Q -0.359 | P -0.948 | H -0.32 | F -0.218 | Y -0.098 | C -0.612 | I -0.968 | L -0.719 | G -0.833 | E -0.757 | N -0.567 | T -0.923
E45: P -1.02 | V -0.392 | L -0.53 | T -0.398 | G -0.101 | A -0.041 | K -0.43 | F -0.768 | M -0.586 | N -0.368 | Y -0.38 | H -0.333 | W -0.788 | C -0.262 | I -0.975 | R -0.107 | Q -0.13
D40: N -0.187
Y44: F 0.006 | S 0.135 | E 0.012 | L -0.05 | H -0.13 | C 0.097 | Q -0.206 | D -0.468 | V 0.103 | P -0.473 | N -0.111 | R 0.171 | T 0.039 | K 0.157 | I -0.015 | A -0.065 | G -0.767 | M 0.09
N43: E -0.079 | H -0.073 | M -0.108 | F -0.052 | V 0.035 | C -0.059 | R 0.091 | G -0.162 | D -0.259 | T 0.073 | K 0.093 | Y 0.003 | P -0.563 | S -0.045 | W -0.059 | L 0.01
